Target: biotinylated DNP-Ab (anti-DNP antibody modified with biotinamidocaproate N-hydroxysuccinimide ester)
Experiment: quartz crystal microbalance; avidin injected onto biotinylated DNP-Ab held on the dinitrosalicylic acid antigen monolayer

Substance: avidin (from UniProt P02701 25-152)
- crystal frequency change Δf: -120 Hz
